From patent US20180355012A1

What was measured:
[1] = target: HLA-A2/… pMHC complex (NY-ESO-1 tumor specific antigen); experiment: BLI (forteBIO Oke), biotinylated pMHC on SA sensor, soluble TCR in solution, 1:1 fit
[2] = target: HLA-B4405: … pMHC complex
[3] = target: HLA-A1: … pMHC complex (MageA3 tumor specific antigen); experiment: BLI (forteBIO Oke), biotinylated pMHC on SA sensor, soluble TCR in solution, 1:1 fit

| Substance | Kd [3] | further results |
| --- | --- | --- |
| 1G4 TCR with an artificial interchain disulfide bond between position 53 of TRAC*01 exon 1 and position 54 of TRBC1*01 or TRBC2*01 exon 1 |  | Kd [1]: 6.96 µM |
| LC13 TCR with an artificial interchain disulfide bond between position 10 of TRAC*01 exon 1 and posi |  | Kd [2]: 10 µM |
| MGA3 TCR with an artificial interchain disulfide bond between position 10 of TRAC*01 exon 1 and position 20 of TRBC1*01 or TRBC2*01 exon 1 | 3.45 µM |  |
| MGA3 TCR with an artificial interchain disulfide bond between position 53 of TRAC*01 exon 1 and position 54 of TRBC1*01 or TRBC2*01 exon 1 | 1.42 µM |  |
| MGA3 TCR with an artificial interchain disulfide bond between position 89 of TRAC*01 exon 1 and position 19 of TRBC1*01 or TRBC2*01 exon 1 | 2.04 µM |  |
